Test results taken from patent US20080299228A1, “TOPICAL COMPOSITIONS COMPRISING A MACROMOLECULE AND METHODS OF USING SAME” (priority 2007, published 2008).
No end group written: not given here. *: point of attachment. 125I = [125I]*

Tests used:
[1] = Effect of process parameters and excipients on rehydration time of lyophilized HEC gel; type: physicochemical; design: key: ✓: Additives that had a positive effect (i.e., reduction in hydration time) have a check mark beside them; conditions: additive screening
Protocol: Preliminary studies on rehydration time used water (see Table 13). Rehydration in 12% hexylene glycol, a humectant, decreased the rehydration time for a HEC 250HX lyophilized cake down to 20-30 minutes. Further experiments used 12% hexylene glycol for rehydration.
The freezing rate for lyophilized products can affect the cake structure. Freezing at −20° C. was the standard procedure used in this study. To investigate the effect of a faster freezing rate, samples were frozen in a dry ice/ethanol bath at −48° C.
Samples from both freezing methods were lyophilized. During the lyophilization process, all samples from the ice bath freezing collapsed into dense cakes. During rehydration, the ice bath frozen cakes were much slower to form gels. It took at least 1 hour to rehydrate the ice bath frozen cakes.
HEC 250HX gels at 1.125 and 2.25% polymer were prepared. The latter gel was more viscous than the former due to the higher polymer concentration. After freeze drying, cakes from both products were rehydrated so that the final polymer concentration was 1.125%. The lyophilized gels prepared with the more concentrated polymer solution required approximately 15-20 minutes longer to rehydrate than the more dilute formulation. The higher density of the concentrated polymer cake was likely a factor in the longer rehydration time.
Additives with a wide range of physical properties were screened to evaluate their effect on rehydration time for a lyophilized 1.125% HEC 250HX gel. The chemical classes included in this screen were polymers, surfactants, amino acids, colloidal powders, and salts. All additives were crystalline at room temperature. The use of amorphous excipients could lead to melting/cake collapse at elevated temperature. When evaluating chemical classes, priority was given to those included in the IIG for topicals. Excipients shown to be physically and/or chemically incompatible with PTH(1-34) were excluded (4). Salts containing polyvalent anions were also excluded to avoid the potential for precipitating PTH(1-34).
“Powdered” solid formulations were also evaluated. […]

[2] = Percutaneous absorption of 125I macromolecules, in vitro cadaver skin finite dose technique; type: in vitro ADME, human; conditions: for Total Absorption / Dermis / Epidermis / Stratum Corneum / Surface Wash: 48 hours
Excerpt: Radiolabeled Bovine Serum Albumin was acquired from American Radiolabeled Chemicals (St. Louis, Mo.) as ARI 0112 Albumin (bovine serum) [I^125] with a specific activity of 204 Ci/mmol (Lot number 080372). Radiolabeled Epidermal Growth Factor (murine) and Somatastatin were acquired from Perkin Elmer Life and Analytical Sciences (Boston, Mass.) as [^125I]-Epidermal Growth Factor (murine) and [^125I]Tyr11-Somatostatin 14 with specific activities of 2200 Ci/mmol (Lot number CC41180) and 2200 Ci/mmol (Lot number JX32880), respectively. Each stock isotope was either provided as, or reconstituted into 12.5 μL of distilled de-ionized water. This volume was added to 500 μL of the provided test formulations and mixed for uniformity. Replicate assessments were made from each final mixture to determine specific activity.
Skin Preparation. Percutaneous absorption was measured using the in vitro cadaver skin finite dose technique. Ex vivo human trunk skin without obvious signs of skin disease, obtained within 24-48 hours of death, was used in this study. Skin was dermatomed, prepared for cryopreservation, sealed in a water impermeable plastic bag, and stored at <−70° C. until the day of the experiment. Prior to use, it was thawed in ˜37° C. water, then rinsed in water to remove any adherent blood or other material from the surface.
Skin from a single donor was cut into multiple smaller sections large enough to fit on static 1.0 cm^2 Franz diffusion cells (see FIG. 6). The dermal chamber was filled to capacity with a reservoir solution of phosphate-buffered isotonic saline (PBS), pH 7.4±0.1, and the epidermal cell (chimney) left open to ambient laboratory conditions. All cells were mounted in a diffusion apparatus in which the dermal bathing solution was stirred magnetically at approximately 600 RPM and the skin surface temperature maintained at 32.0° C.±1.0° C.
To assure the integrity of each skin section, its permeability to tritiated water was determined before application of the test products. Following a brief (0.5-1 hour) equilibrium period, ^3H2O (NEN, Boston, Mass., sp. Act. ˜0.5 μCi/mL) was layered across the top of the skin by dropper so that the entire exposed surface was covered (approximately 250-500 μL). After 5 minutes the ^3H2O aqueous layer was removed. At 30 minutes the receptor solution was collected and analyzed for radioactive content by liquid scintillation counting. Skin specimens in which absorption of ^3H2O was less than 1.56 μL-equ/cm^2 were considered acceptable.
Dosing and Sample Collection. Just prior to dosing, the reservoir solution was replaced with a fresh solution of 1× PBS and a pre-dose sample taken for analysis. The chimney was removed from the Franz Cell to allow full access to the epidermal surface of the skin. All formulations were then applied to the skin sections using a positive displacement pipette set to deliver 5 μL formulation/cm^2. The dose was spread across the surface with the Teflon® tip of the pipette. Five to ten minutes after application, the chimney portion of the Franz Cell was replaced. At pre-selected times after dosing (1, 2, 4, 8, 12, 24, 32, and 48 hours) the reservoir solution was removed in its entirety, replaced with fresh reservoir solution, and a predetermined volume aliquot saved for subsequent analysis.
After the last sample was collected, the surfaces were washed twice (0.5 mL volume each) with 1× PBS to collect un-absorbed formulation from the surface of the skin. Following the wash, the skin was tape stripped a sufficient number of times to collect the stratum corneum. The skin was then removed from the chamber and split into epidermis and dermis. All skin sections were dissolved overnight in Soluene-350® (Perkin Elmer).
Analytical Methods. Analysis of all formulations was by liquid scintillation counting. One-milliliter volumes of each receptor solution and each surface wash received 5-6 mL scintillation fluid or as needed. […]

[3] = Rehydration time of lyophilized polymer gels; type: physicochemical; conditions: xanthan gum, carrageenan
Protocol: Lyophilized gels were prepared by slowing adding the polymer to water with stirring. For gels with methylcellulose or hydroxypropylcellulose, the polymer was added to hot water and the product was cooled with stirring. The gels took between 1-3 hours to reach maximum viscosity. All gels were allowed to stand for at least 12 hours before any additional processing. If PTH(1-34) was included in the formulation, the peptide was added to an aliquot of gel and gently stirred for 10 minutes.
Prior to lyophilization, gels were filled into Type I glass vials and frozen. Freezing was performed on a freezer shelf (−20° C.) or in a dry ice/ethanol bath (˜−48° C.). The lyophilizer (Ultra-dry Labtop, Freezedry Specialties, Inc) was equipped with a condenser (−50° C.) and an ultra high vacuum pump (DUO 2.5, Pfeiffer Vacuum, Inc) to provide optimal conditions for sublimating the frozen water. No heating or cooling was applied to the lyophilizer shelf. Vials containing lyophilized gels with PTH(1-34) were purged with nitrogen before stoppering (Teflon coated butyl rubber) and sealing (aluminum crimp seal).
A panel of lyophilized polymer gel was screened for the capacity to reform gels following rehydration. […]

[4] = type: physicochemical
Protocol: All excipients for the room temperature gel formulations met USP/NF monographs. Reagents for analysis were HPLC and/or ACS grade and nitrogen was ultra high purity (>99.999%). PTH(1-34) was supplied by Neo-MPS. Reverse phase HPLC RP-HPLC analysis of reconstituted gels/solutions was performed according to standard methods.
At each time point, two assays were performed on each formulation.
Before preparing larger batches for longer term stability studies, three pilot batches were prepared on the 10 g scale to assess the solid product's stability. The batches included either PTH(1-34) plus HEC, PTH(1-34) plus HEC in 1.0% mannitol and PTH(1-34) plus HEC in 1.0% lactose. The lyophilized gels were prepared according to the method of Example 8. Stability was assayed according to by HPLC.
The PTH(1-34) formulations that included HEC in 1.0% mannitol and HEC alone were prepared on a larger scale for use in a long-term stability analysis. In addition to these two lyophilized gel formulations, neat PTH(1-34), i.e., PTH powder, was also filled into vials (purged with nitrogen).
PTH was assayed by HPLC analysis of reconstituted gels/solutions. The samples were assayed before storage, stored at 40° C. and assayed at 1, 3, and 6 months after storage. At each time point, 2 assays were performed on each formulation. […]

[5] = 0.5 hr (midpoint), Mean ± SE, n = 3 Donors
[6] = 28.0 hr (midpoint), Mean ± SE, zeros below LLOQ
[7] = percent of applied dose, Mean ± SE

Compound | effect of additive on hydration time of lyophilized 1.125% HEC 250 HX gel [1] | Mean Flux [2, 5] [ng/cm^2/hr] | Mean Flux ([2]; 1.5 hr (midpoint), Mean ± SE) [ng/cm^2/hr] | Mean Flux ([2]; 3.0 hr (midpoint), Mean ± SE) [ng/cm^2/hr] | Mean Flux ([2]; 6.0 hr (midpoint), Mean ± SE) [ng/cm^2/hr] | Mean Flux ([2]; 10.0 hr (midpoint), Mean ± SE) [ng/cm^2/hr] | Mean Flux ([2]; 18.0 hr (midpoint), Mean ± SE) [ng/cm^2/hr] | Mean Flux [2, 6] [ng/cm^2/hr] | Mean Flux ([2]; 40.0 hr (midpoint), Mean ± SE) [ng/cm^2/hr] | Total Absorption ([2]; single application, Mean ± SE) [µg] | Dermis ([2]; Mean ± SE) [µg] | Epidermis ([2]; Mean ± SE) [µg] | Stratum Corneum ([2]; Mean ± SE) [µg] | Surface Wash ([2]; Mean ± SE) [µg] | Dermis ([2]; percent of applied dose) [%] | Epidermis ([2]; percent of applied dose) [%] | Stratum Corneum ([2]; percent of applied dose) [%] | Surface Wash ([2]; percent of applied dose) [%] | Total Absorption [2, 7] [%] | also measured
[Cl-].[K+] [Potassium Chloride] | Potassium Chloride✓ | – | – | – | – | – | – | – | – | – | – | – | – | – | – | – | – | – | – | –
[Cl-].[Na+] [Sodium Chloride] | Sodium Chloride✓ | – | – | – | – | – | – | – | – | – | – | – | – | – | – | – | – | – | – | –
CC(O)C(=O)[O-].[Na+] (stereo not drawn) [Sodium Lactate] | Sodium Lactate✓ | – | – | – | – | – | – | – | – | – | – | – | – | – | – | – | – | – | – | –
Bovine Serum Albumin: [125I] bovine serum albumin in HEC gel, 1.0 mg/mL | – | 4.69 ± 3.93 | 1.04 ± 1.04 | 0.71 ± 0.43 | 0.26 ± 0.12 | 0.05 ± 0.05 | 0.04 ± 0.04 | 0.02 ± 0.02 | 0.06 ± 0.03 | 0.010 ± 0.007 | 0.079 ± 0.024 | 0.423 ± 0.060 | 0.616 ± 0.157 | 3.788 ± 0.357 | 1.607 ± 0.487 | 8.610 ± 1.230 | 12.552 ± 3.202 | 77.182 ± 7.273 | 0.205 ± 0.148 | –
Epidermal Growth Factor: [125I]-Epidermal Growth Factor (murine) in HEC gel, 0.1 mg/mL | – | 0.40 ± 0.21 | 0.11 ± 0.08 | 0.07 ± 0.06 | 0.04 ± 0.02 | 0.09 ± 0.06 | 0.01 ± 0.01 | 0.00 ± 0.00 | 0.01 ± 0.00 | 0.001 ± 0.000 | 0.008 ± 0.002 | 0.013 ± 0.001 | 0.014 ± 0.001 | 0.479 ± 0.005 | 1.629 ± 10.311 | 2.646 ± 0.242 | 2.773 ± 0.131 | 98.145 ± 1.046 | 0.278 ± 0.095 | –
PTH(1-34): parathyroid hormone fragment 1-34, supplied by Neo-MPS | – | – | – | – | – | – | – | – | – | – | – | – | – | – | – | – | – | – | – | compatibility with anionic polymers [3]: not compatible with anionic polymers
Somatostatin: [125I]Tyr11-Somatostatin 14 in HEC gel, 1.0 mg/mL (AGCKNFFWKTY(125I)TSC; ends and bridges not checked; UniProt P61278 103-116, looked up, variant F11Y) | – | 8.09 ± 3.68 | 2.14 ± 1.89 | 0.54 ± 1.89 | 0.22 ± 0.20 | 0.11 ± 0.05 | 0.02 ± 0.02 | 0.00 ± 0.00 | 0.01 ± 0.00 | 0.013 ± 0.007 | 0.118 ± 0.008 | 0.180 ± 0.010 | 0.190 ± 0.009 | 4.561 ± 0.118 | 2.410 ± 0.169 | 3.697 ± 0.200 | 3.886 ± 0.180 | 93.493 ± 2.412 | 0.234 ± 0.149 | –
XF15//339006-2: Neat PTH(1-34) from Neo-MPS, lyophilized powder, vials purged with nitrogen | – | – | – | – | – | – | – | – | – | – | – | – | – | – | – | – | – | – | – | degradation (in words) [4]: significant degradation; reduction of PTH(1-34) assay ([4]; six months of storage at 40° C.): ~25%
